From patent EP4714973A1 (Gracell Bioscience (Shanghai) Co., Ltd., dated 2026)

T1: CLL1 on the surface of cells (HL60, KG1, Hela-CLL1) (UniProt Q5QGZ9 1-265, limits assumed)
T1 construct: whole, on cells; HL60 and KG1 are human cell lines; also called CLEC12A; CD371
T1 sequence (looked up): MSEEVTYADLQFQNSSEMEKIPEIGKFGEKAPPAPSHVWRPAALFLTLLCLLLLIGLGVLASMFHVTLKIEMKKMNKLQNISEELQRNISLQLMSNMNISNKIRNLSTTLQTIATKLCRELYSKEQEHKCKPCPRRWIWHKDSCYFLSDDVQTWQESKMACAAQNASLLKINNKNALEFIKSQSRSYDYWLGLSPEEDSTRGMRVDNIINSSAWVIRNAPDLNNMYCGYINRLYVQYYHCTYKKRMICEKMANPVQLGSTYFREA


Biological target: T1, CLL1 on the surface of cells (HL60, …)
Test: flow cytometry, serial dilution of scFv-mIgG2a Fc on HL60 cells (comparator, weaker signal)

binding result | Binder
binds | scFv antibody M26 with the Fc fragment of murine IgG2a at the C-terminal (Fc fusion, not shown: a dimerising Fc or GST; small tags and cut ends, also called M26 scFv) scFv: EVQLQQSGPELVKPGASVKMSCKASGYTFTSYFIHWVKQKPGQGLEWIGFINPYNDGSKYNEKFKGKATLTSDKSSSTAYMELSSLTSEDSAVYYCTRDDGYYGYAMDYWGQGTSVTVSSGGGGSGGGGSGGGGSDIQMTQSPSSLSASLGERVSLTCRATQELSGYLSWLQQKPDGTIKRLIYAASTLDSGVPKRFSGNRSGSDYSLTISSLESEDFADYYCLQYAIYPYTFGGGTKLEIK

Biological target: T1, CLL1 on the surface of cells (HL60, …)
Test: flow cytometry, serial dilution of VHH-mIgG2a Fc on HL60 cells

binding result | Binder
binds | C1 single-domain antibody with the Fc fragment of murine IgG2a at the C-terminal (Fc fusion, also called C1 VHH-mIgG2aFc; not shown: Fc fragment of murine IgG2a, added to the C-terminal of the VHH) QVQLVESGGGLVQPGGSLRLSCAASGFTFSSKTMGWARQVPGKAIEWLSGIYSDGSTYYADSVKGRFTISRDNAKNMVYLQMNSLKPEDTAVYYCATEDLTSYGRGTQVTVSS
binds | C3 single-domain antibody with the Fc fragment of murine IgG2a at the C-terminal (Fc fusion, not shown: a dimerising Fc or GST; small tags and cut ends, also called C3 VHH-mIgG2aFc) VHH: QVQLVESGGGLVQPGGSLRLSCAASGFTFSSYAMGWARQVPGKEVEWVSGIYSDGRTYYADSVKGRFTISRDNAKNEVYLQMNSLKPEDTAVYYCAPEPGQGVGDYWGQGTQVTVSS
binds | C5 single-domain antibody with the Fc fragment of murine IgG2a at the C-terminal (Fc fusion, not shown: a dimerising Fc or GST; small tags and cut ends, also called C5 VHH-mIgG2aFc) VHH: QVQLVESGGGLVQPGGSLRLSCAASGFTFSSYDMGWARQVPGKAVEWVSGIYSDGSTYYADSVKGRFTISRDNAKNTVYLQMNSLKPEDTAVYYCATDPLTSELRSWGQGTQVTVSS
binds | C9 single-domain antibody with the Fc fragment of murine IgG2a at the C-terminal (Fc fusion, not shown: a dimerising Fc or GST; small tags and cut ends, also called C9 VHH-mIgG2aFc) VHH: QVQLVESGGGLVQPGGSLRLSCAASGFTFSSYAMGWARQVPGKDVEWVSGIYSDGSTYYADSVKGRFTISRYNAKNTVYLQMNSLKPEDTAVYYCATDPTLENQTTAWGQGTQVTVSS
binds | C7 single-domain antibody with the Fc fragment of murine IgG2a at the C-terminal (Fc fusion, not shown: a dimerising Fc or GST; small tags and cut ends, also called C7 VHH-mIgG2aFc) VHH: QVQLVESGGGLVQPGGSLRLSCAASGFTFSSYAMGWARQVPGKEVEWVSGIYSDGSTNYADSVKGRFTISRDNAKNTVYLQMNSLRPEDTAVYHCATDPTVHSDLPVWGQGTLVTVSS
